# Results published in US20240317847A1 (Bayer, published 2024).
# Positions count from the first letter of the chain named.
# T1: murine IL-11 (mouse, UniProt P47873 22-199)
# T1 sequence: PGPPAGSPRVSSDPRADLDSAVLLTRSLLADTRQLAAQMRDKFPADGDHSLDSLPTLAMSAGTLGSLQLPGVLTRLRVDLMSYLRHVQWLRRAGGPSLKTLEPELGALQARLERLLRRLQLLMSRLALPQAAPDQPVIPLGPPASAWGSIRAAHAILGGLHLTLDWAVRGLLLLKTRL
# T2: human IL-11 (human, UniProt P20809 22-199)
# T2 sequence: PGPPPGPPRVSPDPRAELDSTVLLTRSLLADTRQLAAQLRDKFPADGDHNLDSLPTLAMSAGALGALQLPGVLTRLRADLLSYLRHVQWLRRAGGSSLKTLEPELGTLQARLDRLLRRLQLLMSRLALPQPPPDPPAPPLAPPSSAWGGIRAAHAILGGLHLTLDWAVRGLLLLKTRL
# T3: murine IL-11 (mouse, UniProt P47873 22-199)
# T3 construct: bought from Invigate; also called mIL-11; mIL11
# T3 sequence: T1 sequence
# T4: human IL-11 (human, UniProt P20809 22-199)
# T4 construct: bought from Invigate; also called hIL-11; hIL11
# T4 sequence: T2 sequence
# T5: human IL2Ra (human, UniProt P01589 22-240, limits assumed)
# T5 construct: bought protein, coated on the plate; also called hIL2RA; IL-2 receptor alpha
# T5 sequence (looked up): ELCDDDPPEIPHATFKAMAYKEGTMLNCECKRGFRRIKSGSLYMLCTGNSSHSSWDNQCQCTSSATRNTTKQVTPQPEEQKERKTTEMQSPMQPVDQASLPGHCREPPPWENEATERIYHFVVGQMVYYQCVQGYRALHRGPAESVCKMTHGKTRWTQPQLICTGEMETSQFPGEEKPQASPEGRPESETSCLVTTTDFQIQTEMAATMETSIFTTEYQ
# B1: TPP-26333 (antibody, V domains shown)
# VH: EVQLLESGGGLVQPGGSLRLSCAASGFTFSSYGFHWVRQAPGKGLEWVSVISYDGSYKYYADSVKGRFTISRDNSKNTLYLQMNSLRAEDTAVYYCAAGVPDYWGQGTLVTVSS
# VL: QSVLTQPPSASGTPGQRVTISCTGSSSNIGAGYDVHWYQQLPGTAPKLLIYSNNERPSGVPDRFSGSKSGTSASLAISGLRSEDEADYYCAAWDDSLNGPVFGGGTKLTVL
# B2: TPP-26290 (antibody, V domains shown)
# VH: B1 VH with F34M
# VL: B1 VL with Y33M
# notes: constant regions not restated
# B3: TPP-26304 (antibody, V domains shown)
# VH: B1 VH with F34M
# VL: B1 VL with G30W
# notes: constant regions not restated
# B4: TPP-26307 (antibody, V domains shown)
# VH: B1 VH with F34M
# VL: B1 VL with D95I
# notes: constant regions not restated
# B5: TPP-26306 (antibody, V domains shown)
# VH: B1 VH with F34M
# VL: B1 VL with D95Q
# notes: constant regions not restated
# B6: TPP-26320 (antibody, V domains shown)
# VH: B1 VH with F34M
# VL: B1 VL with N54E
# notes: constant regions not restated
# B7: TPP-26298 (antibody, V domains shown)
# VH: B1 VH with F34M
# VL: B1 VL with T23L
# notes: constant regions not restated
# B8: TPP-26309 (antibody, V domains shown)
# VH: B1 VH with F34M
# VL: B1 VL with D95F
# notes: constant regions not restated
# B9: TPP-26297 (antibody, V domains shown)
# VH: B1 VH with F34M
# VL: B1 VL with D94Q
# notes: constant regions not restated
# B10: TPP-26300 (antibody, V domains shown)
# VH: B1 VH with F34M
# VL: B1 VL with D95S
# notes: constant regions not restated
# B11: TPP-26313 (antibody, V domains shown)
# VH: B1 VH with F34M
# VL: B1 VL with G32Y
# notes: constant regions not restated
# B12: TPP-26318 (antibody, V domains shown)
# VH: B1 VH with F34M
# VL: B1 VL with D34F
# notes: constant regions not restated
# B13: TPP-26296 (antibody, V domains shown)
# VH: B1 VH with F34M
# VL: B1 VL with D95N
# notes: constant regions not restated
# B14: TPP-26292 (antibody, V domains shown)
# VH: B1 VH with F34M
# VL: B1 VL with D95E
# notes: constant regions not restated
# B15: TPP-26312 (antibody, V domains shown)
# VH: B1 VH with F34M
# VL: B1 VL with Y33L
# notes: constant regions not restated
# B16: TPP-26291 (antibody, V domains shown)
# VH: B1 VH with F34M
# VL: B1 VL with D95P
# notes: constant regions not restated
# B17: TPP-26317 (antibody, V domains shown)
# VH: B1 VH with F34M
# VL: B1 VL with G32E
# notes: constant regions not restated
# B18: TPP-26302 (antibody, V domains shown)
# VH: B1 VH with F34M
# VL: B1 VL with A91S
# notes: constant regions not restated
# B19: TPP-26303 (antibody, V domains shown)
# VH: B1 VH with F34M
# VL: B1 VL with S58E
# notes: constant regions not restated
# B20: TPP-26321 (antibody, V domains shown)
# VH: B1 VH with F34M
# VL: B1 VL with D95L
# notes: constant regions not restated
# B21: TPP-26295 (antibody, V domains shown)
# VH: B1 VH with F34M
# VL: B1 VL with D95H
# notes: constant regions not restated
# B22: TPP-26294 (antibody, V domains shown)
# VH: B1 VH with F34M
# VL: B1 VL with G32A
# notes: constant regions not restated
# B23: TPP-26323 (antibody, V domains shown)
# VH: B1 VH with F34M
# VL: B1 VL with D95G
# notes: constant regions not restated
# B24: TPP-26299 (antibody, V domains shown)
# VH: B1 VH with F34M
# VL: B1 VL with N98Y
# notes: constant regions not restated
# B25: TPP-26293 (antibody, V domains shown)
# VH: B1 VH with F34M
# VL: B1 VL with G32W
# notes: constant regions not restated
# B26: TPP-26316 (antibody, V domains shown)
# VH: B1 VH with F34M
# VL: B1 VL with D95M
# notes: constant regions not restated
# B27: TPP-26314 (antibody, V domains shown)
# VH: B1 VH with F34M
# VL: B1 VL with D95W
# notes: constant regions not restated
# B28: TPP-26315 (antibody, V domains shown)
# VH: B1 VH with F34M
# VL: B1 VL with G32H
# notes: constant regions not restated
# B29: TPP-26319 (antibody, V domains shown)
# VH: B1 VH with F34M
# VL: B1 VL with R56K
# notes: constant regions not restated
# B30: TPP-26310 (antibody, V domains shown)
# VH: B1 VH with F34M
# VL: B1 VL with S58W
# notes: constant regions not restated
# B31: TPP-26308 (antibody, V domains shown)
# VH: B1 VH with F34M
# VL: B1 VL with D95V
# notes: constant regions not restated
# B32: TPP-26333 (antibody, V domains shown)
# VH: B1 VH
# VL: B1 VL
# notes: constant regions not restated
# Biological target: T1, murine IL-11
# Test: cell-based or functional assay
RGA Efficacy (%),RGA IC50 [nM],Binder
94.1,1.2,B1

# Biological target: T2, human IL-11
# Test: cell-based or functional assay
RGA Efficacy (%),RGA IC50 [nM],Binder
64.7,13,B1

# Biological target: T3, murine IL-11
# Test: SPR, antibody captured, IL-11 as analyte
# Procedure: (§1) Antibodies were captured via anti-mouse Fc IgGs (“Mouse antibody capture kit, Order No. BR100383, Cytiva) covalently amine coupled to a Series S CM5 sensor chip (Cytiva). The amine coupling was carried out according to the manufacturer's instructions using 1-ethyl-3-(3-dimethylaminopropyl) carbodiimide hydrochloride (EDC), N-hydroxysuccinimide (NHS) and ethanolamine HCl, pH 8.5 (“Amine Coupling Kit” BR-1000-50, Cytiva.). Human IL-11 (Invigate, e.g., lot #C121021-19), and murine IL-11 (Invigate, e.g., lot #C210819-09) were used as analytes. […] Based on that experiment an IL-11 concentration range was chosen to optimally determine kinetics and affinity of anti-IL-11 antibodies in multicycle kinetics mode. The sensor surface was regenerated with glycine pH 1.7 after each antigen injection. Obtained sensorgrams were double referenced (subtraction of reference flow cell signal and buffer injection) and were fitted to a 1:1 Langmuir binding model to derive kinetic data using the Biacore T200 Evaluation software or the Biacore Insight software.
# (§2) 42 hits from the IL-11 and […] screening analysis were selected, expressed by transient transfection of mammalian cells and purified as described in Example 15. Antibodies were then tested for human IL-11 and murine IL-11 binding by SPR as described in Example 16.
row,Kd [nM],Binder
1,0.54,B2
2,0.64,B3
3,1.6,B4
4,0.65,B5
5,0.83,B6
6,0.73,B7
7,0.8,B8
8,0.89,B9
9,0.45,B10
10,0.46,B11
11,8.1,B12
12,0.71,B13
13,0.48,B14
14,0.8,B15
15,0.94,B16
16,0.9,B17
17,0.7,B18
18,0.65,B19
19,0.94,B20
20,0.65,B21
21,0.82,B22
22,0.58,B23
23,0.63,B24
24,0.26,B25
25,0.72,B26
26,0.56,B27
27,0.95,B28
28,1.4,B29
29,0.66,B30
30,1.3,B31

# Biological target: T4, human IL-11
# Test: SPR, antibody captured, IL-11 as analyte
# Procedure: as §1, §2
row,Kd [nM],Binder
1,8.6,B2
2,12,B3
3,16,B4
4,12,B5
5,13,B6
6,13,B7
7,8.2,B8
8,13,B9
9,9.2,B10
10,9.1,B11
11,14,B12
12,14,B13
13,13,B14
14,10,B15
15,9.7,B16
16,8.1,B17

row,Kd [nM],Binder
1,13,B18
2,13,B19
3,9.3,B20
4,9.8,B21
5,11,B22
6,10,B23
7,11,B24
8,11,B25
9,8.4,B26
10,8.3,B27
11,14,B28
12,11,B32
13,12,B29
14,13,B30
15,17,B31

# Biological target: T5, human IL2Ra
# Test: IL2Ra direct binding ELISA, signal ratio to isotype control
# Outline: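 Plates coated overnight at 4-8 °C with IL2RA at 1 or 0 μg/ml, blocked with SmartBlock. Antibody dilution series from 1E-7 to 2E-13 M bound 90 min at room temperature, detected with HRP anti-mouse IgG and Amplex red/H2O2; fluorescence at 535/590 nm.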
row,hIL2RA ELISA Binding: Ratio to Isotpye [ratio],Binder
1,436,B1
